Results published in US20140296501.
pKd: −log10 of the molar value. Like-named read-outs stand apart in the source and are kept apart here.

Target: EGFR (ERBB1) (UniProt P00533)

Row | Sequence | pKd (N = BndU (5-benzylaminocarbonyl-2'-deoxyuridine), text prints natural T in the 5' region CCACGCTGGGTGGGTC while listing shows n there [n positions 7,11,15,18,24,25,27,31,36,37,39,40,44,45,47,48,49,53,54 = modified dU]) | pKd (N = BndU [n positions 2,8,9,11,15,20,21,23,24,28,29,31,32,33,37,38 = modified dU])
1 | CCACGCTGGGTGGGTCATCGAGGTTGTGGGTCGGATTGTTGGATTCTTTAAGTTGGGAACACCAACCGAGAACG [EGFR aptamer SEQ ID NO: 4] | 9.91 | –
2 | ATCGAGGTTGTGGGTCGGATTGTTGGATTCTTTAAGTTGGGAACACCAAC [EGFR aptamer SEQ ID NO: 5 (50-mer truncate)] | – | 9.28
